In US20220033470A1:

Assays:
[1] = target: human insulin receptor (human) (UniProt P06213); assay: SPR (Biacore), soluble sortilin 50-500 nM over immobilized human insulin receptor
[2] = target: murine insulin receptor (murine) (UniProt P15208); assay: Surface plasmon resonance (Biacore); murine insulin receptor (mIR) immobilized (0.0607 pmol/mm^2), sortilin injected at 50-500 nM, CaHBS buffer
[3] = target: murine insulin receptor (murine) (UniProt P15208); assay: SPR (Biacore), soluble sortilin 50-500 nM over immobilized murine insulin receptor
[4] = target: human insulin receptor (human) (UniProt P06213); assay: Surface plasmon resonance (Biacore); human insulin receptor immobilized (0.0609 pmol/mm^2), sortilin injected at 50-500 nM, CaHBS buffer

Substance: Soluble sortilin (from UniProt Q99523 78-755) (receptor)
- Kd [1]: 40 nM
- Kd [2]: 42 nM
- Kd [3]: 40 nM
- Kd [4]: 46 nM
